Experimental data: patent US20220177587A1, “METHODS AND USES OF VARIANT CD80 FUSION PROTEINS AND RELATED CONSTRUCTS” (Alpine Immune Sciences, Inc., priority 2018, published 2022)

Columns and labels:
huCTLA4 = huCTLA4 (Homo sapiens, UniProt P16410); assay: Flow binding to CHO cells stably expressing CTLA4; design: huCTLA4 and huPD-L1, full-length mammalian surface expression constructs were generated; expressed in transfected cells; host or cells: CHO cells, lentiviral transduction, sorted to >98% purity; conditions: for CTLA4 MFI at 33.3 nM: CHO cells stably expressing CTLA4; for CTLA4 Fold change to WT CD80: MFI at 33.3 nM relative to CD80 WT IgV-Fc
Method in brief: (§1)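 Cells were first blocked in PBS with 1% BSA and 0.1% sodium azide. Primary staining with fusion protein ran 45 min on ice, and secondary staining with PE anti-human Fc at 1:150 ran 30 min on ice.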

CD28 [1] = target: T1, CD28 (Homo sapiens, UniProt P10747); assay: Flow binding to Jurkat/IL2 reporter cells (CD28); design: host or cells: Jurkat cells expressing an IL-2-luciferase reporter; conditions: for CD28 Fold change to WT CD80: MFI at 33.3 nM relative to CD80 WT IgV-Fc
Method in brief: as §1

CD28 [2] = target: T1, CD28; assay: Jurkat/IL2 + CHO/OKT3 +/- PD-L1 reporter assay: PD-L1-dependent CD28 costimulation; format: cell-based; design: host or cells: Jurkat cells expressing an IL-2-luciferase reporter; conditions: Jurkat/IL2 + CHO/OKT3/PD-L1
Method in brief: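 Readout is relative luminescence from lysed cocultures: test protein given 15 min at room temperature to Jurkat cells before adding CHO artificial APCs displaying OKT3 alone or OKT3 plus PD-L1, then 5 h at 37 °C, 5% CO2.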

huPD-L1 = huPD-L1 (Homo sapiens, UniProt Q9NZQ7); assay: Flow binding to CHO cells stably expressing PD-L1; design: huCTLA4 and huPD-L1, full-length mammalian surface expression constructs were generated; expressed in transfected cells; host or cells: CHO cells, lentiviral transduction, sorted to >98% purity; conditions: for PD-L1 MFI at 33.3 nM: CHO cells stably expressing PD-L1; for PD-L1 Fold change to WT CD80: MFI at 33.3 nM relative to CD80 WT IgV-Fc; for Ratio of PDL1:CD28: ratio of MFI at 33.3 nM
Method in brief: as §1

[3] = Table E23, CD80 IgV-Fc (inert) at 33.3 nM
[4] = Table E23, CD80 IgV-Fc (inert) at 33.3 nM, Jurkat (CD28)
[5] = Table E20, Jurkats (CD28), 33.3 nM

Sequence of huPD-L1 (Q9NZQ7 19-290): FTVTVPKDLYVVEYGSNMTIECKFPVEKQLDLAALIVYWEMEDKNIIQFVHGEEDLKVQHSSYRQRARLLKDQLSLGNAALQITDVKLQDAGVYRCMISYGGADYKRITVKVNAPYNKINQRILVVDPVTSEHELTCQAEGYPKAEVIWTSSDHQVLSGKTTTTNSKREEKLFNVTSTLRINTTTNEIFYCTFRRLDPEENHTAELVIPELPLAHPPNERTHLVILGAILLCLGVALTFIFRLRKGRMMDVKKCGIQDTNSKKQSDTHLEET
Sequence of huCTLA4 (P16410 36-223): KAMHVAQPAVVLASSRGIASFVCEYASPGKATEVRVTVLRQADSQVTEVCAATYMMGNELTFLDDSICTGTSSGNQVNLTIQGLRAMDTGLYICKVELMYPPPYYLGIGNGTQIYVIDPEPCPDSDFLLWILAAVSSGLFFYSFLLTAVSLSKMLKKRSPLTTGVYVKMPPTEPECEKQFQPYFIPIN

CTLA4 MFI at 33.3 nM (huCTLA4; [3])	CTLA4 Fold change to WT CD80 (huCTLA4; Table E23)	CD28 MFI at 33.3 nM (CD28 [1]; [4])	CD28 Fold change to WT CD80 (CD28 [1]; Table E23)	Fold Increase over WT CD80-IgV-Fe (CD28 [2]; Table E24, 5.0 nM)	Relative Luciferase Units (RLU), CD80 Conc 5.0 nM (CD28 [2]; Table E24, 5.0 nM) [RLU]	PD-L1 MFI at 33.3 nM (huPD-L1; [3])	PD-L1 Fold change to WT CD80 (huPD-L1; Table E23)	Ratio of PDL1:CD28 (huPD-L1; Table E23)	CTLA4 MFI at 33.3 nM (huCTLA4; Table E20, 33.3 nM)	CTLA4 Fold change to WT CD80 (huCTLA4; Table E20) [fold]	CD28 MFI at 33.3 nM (CD28 [1]; [5])	CD28 Fold change to WT CD80 (CD28 [1]; Table E20) [fold]	Fold Increase over WT CD80-IgV-Fe (CD28 [2]; Table E22, 5.0 nM) [fold]	Relative Luciferase Units (RLU), CD80 Conc 5.0 nM (CD28 [2]; Table E22, CD80 Conc 5.0 nM) [RLU]	PD-L1 MFI at 33.3 nM (huPD-L1; Table E20, 33.3 nM)	PD-L1 Fold change to WT CD80 (huPD-L1; Table E20) [fold]	Ratio of PDL1:CD28 (huPD-L1; Table E20)	Molecule
									18167	13.4	1550	35.3	2.16	843	9577	219.7	6.2	A26E/E35D/M47L/D90G (protein) VIHVTKEVKEVATLSCGHNVSVEELEQTRIYWQKDKKMVLTMMSGDLNIWPEYKNRTIFDITNNLSIVILALRPSDEGTYECVVLKYEKGAFKREHLAEVTLSVKAD
									25794	19.0	2394	54.5	2.90	1131	12845	294.6	5.4	H18Y/A26E/V68M/D90G (protein) VIHVTKEVKEVATLSCGYNVSVEELEQTRIYWQKEKKMVLTMMSGDMNIWPEYKNRTIFDITNNLSIMILALRPSDEGTYECVVLKYEKGAFKREHLAEVTLSVKAD
									19006	14.0	3795	86.4	2.14	834	21768	499.3	5.7	H18Y/M47L/V68M/D90G (protein) VIHVTKEVKEVATLSCGYNVSVEELAQTRIYWQKEKKMVLTMMSGDLNIWPEYKNRTIFDITNNLSIMILALRPSDEGTYECVVLKYEKGAFKREHLAEVTLSVKAD
									11323	8.3	99.4	2.3	1.20	469	6866	157.5	69.1	H18Y/A26E/V68M/A71G (protein) VIHVTKEVKEVATLSCGYNVSVEELEQTRIYWQKEKKMVLTMMSGDMNIWPEYKNRTIFDITNNLSIMILGLRPSDEGTYECVVLKYEKDAFKREHLAEVTLSVKAD
									25886	19.0	1310	29.8	3.81	1487	8524	195.5	6.5	H18Y/E35D/A71G/D90G (protein) VIHVTKEVKEVATLSCGYNVSVEELAQTRIYWQKDKKMVLTMMSGDMNIWPEYKNRTIFDITNNLSIVILGLRPSDEGTYECVVLKYEKGAFKREHLAEVTLSVKAD

Further lines, the molecule ahead of its results:

Molecule	CTLA4 MFI at 33.3 nM (huCTLA4; [3])	CTLA4 Fold change to WT CD80 (huCTLA4; Table E23)	CD28 MFI at 33.3 nM (CD28 [1]; [4])	CD28 Fold change to WT CD80 (CD28 [1]; Table E23)	Fold Increase over WT CD80-IgV-Fe (CD28 [2]; Table E24, 5.0 nM)	Relative Luciferase Units (RLU), CD80 Conc 5.0 nM (CD28 [2]; Table E24, 5.0 nM) [RLU]	PD-L1 MFI at 33.3 nM (huPD-L1; [3])	PD-L1 Fold change to WT CD80 (huPD-L1; Table E23)	Ratio of PDL1:CD28 (huPD-L1; Table E23)	CTLA4 MFI at 33.3 nM (huCTLA4; Table E20, 33.3 nM)	CTLA4 Fold change to WT CD80 (huCTLA4; Table E20) [fold]	CD28 MFI at 33.3 nM (CD28 [1]; [5])	CD28 Fold change to WT CD80 (CD28 [1]; Table E20) [fold]	Fold Increase over WT CD80-IgV-Fe (CD28 [2]; Table E22, 5.0 nM) [fold]	Relative Luciferase Units (RLU), CD80 Conc 5.0 nM (CD28 [2]; Table E22, CD80 Conc 5.0 nM) [RLU]	PD-L1 MFI at 33.3 nM (huPD-L1; Table E20, 33.3 nM)	PD-L1 Fold change to WT CD80 (huPD-L1; Table E20) [fold]	Ratio of PDL1:CD28 (huPD-L1; Table E20)
H18C/A26P/E35D/M47L/V68M/A71G (protein, UniProt P33681 35-288, looked up, variant H18C A26P E35D M47L V68M A71G) T-lymphocyte activation …: VIHVTKEVKEVATLSCGCNVSVEELPQTRIYWQKDKKMVLTMMSGDLNIWPEYKNRTIFDITNNLSIMILGLRPSDEGTYECVVLKYEKDAFKREHLAEVTLSVKADFPTPSISDFEIPTSNIRRIICSTSGGFPEPHLSWLENGEELNAINTTVSQDPETELYAVSSKLDFNMTTNHSFMCLIKYGHLRVNQTFNWNTTKQEHFPDNLLPSWAITLISVNGIFVICCLTYCFAPRCRERRRNERLRRESVRPV	23371	16.9	1906	18.7	5.5	936	67010	406.1	35.2									
H18V/A26D/E35D/M47V/V68M/A71G/D90G (protein, UniProt P33681 35-288, looked up, variant H18V A26D E35D M47V V68M A71G D90G, Fc fusion) T-lymphocyte activation …: VIHVTKEVKEVATLSCGVNVSVEELDQTRIYWQKDKKMVLTMMSGDVNIWPEYKNRTIFDITNNLSIMILGLRPSDEGTYECVVLKYEKGAFKREHLAEVTLSVKADFPTPSISDFEIPTSNIRRIICSTSGGFPEPHLSWLENGEELNAINTTVSQDPETELYAVSSKLDFNMTTNHSFMCLIKYGHLRVNQTFNWNTTKQEHFPDNLLPSWAITLISVNGIFVICCLTYCFAPRCRERRRNERLRRESVRPV	22132	16.0	6253	61.3	4.5	771	67503	409.1	10.8									
H18V/A26P/E35D/M47L/V68M/A71G (protein, UniProt P33681 35-288, looked up, variant H18V A26P E35D M47L V68M A71G) T-lymphocyte activation …: VIHVTKEVKEVATLSCGVNVSVEELPQTRIYWQKDKKMVLTMMSGDLNIWPEYKNRTIFDITNNLSIMILGLRPSDEGTYECVVLKYEKDAFKREHLAEVTLSVKADFPTPSISDFEIPTSNIRRIICSTSGGFPEPHLSWLENGEELNAINTTVSQDPETELYAVSSKLDFNMTTNHSFMCLIKYGHLRVNQTFNWNTTKQEHFPDNLLPSWAITLISVNGIFVICCLTYCFAPRCRERRRNERLRRESVRPV	16192	11.7	2452	24.0	4.7	808	52405	317.6	21.4									
H18L/A26N/D46E/V68M/A71G/D90G (protein, UniProt P33681 35-288, looked up, variant H18L A26N D46E V68M A71G D90G) T-lymphocyte activation …: VIHVTKEVKEVATLSCGLNVSVEELNQTRIYWQKEKKMVLTMMSGEMNIWPEYKNRTIFDITNNLSIMILGLRPSDEGTYECVVLKYEKGAFKREHLAEVTLSVKADFPTPSISDFEIPTSNIRRIICSTSGGFPEPHLSWLENGEELNAINTTVSQDPETELYAVSSKLDFNMTTNHSFMCLIKYGHLRVNQTFNWNTTKQEHFPDNLLPSWAITLISVNGIFVICCLTYCFAPRCRERRRNERLRRESVRPV	17045	12.3	7253	71.1	4.8	815	67999	412.1	9.4									
H18T/A26N/E35D/M47L/V68M/A71G (protein, UniProt P33681 35-288, looked up, variant H18T A26N E35D M47L V68M A71G, Fc fusion) T-lymphocyte activation …: VIHVTKEVKEVATLSCGTNVSVEELNQTRIYWQKDKKMVLTMMSGDLNIWPEYKNRTIFDITNNLSIMILGLRPSDEGTYECVVLKYEKDAFKREHLAEVTLSVKADFPTPSISDFEIPTSNIRRIICSTSGGFPEPHLSWLENGEELNAINTTVSQDPETELYAVSSKLDFNMTTNHSFMCLIKYGHLRVNQTFNWNTTKQEHFPDNLLPSWAITLISVNGIFVICCLTYCFAPRCRERRRNERLRRESVRPV	20911	15.1	1366	13.4	6.2	1053	68498	415.1	50.1									
H18Y/A26E/M47L/A71G (protein) VIHVTKEVKEVATLSCGYNVSVEELEQTRIYWQKEKKMVLTMMSGDLNIWPEYKNRTIFDITNNLSIVILGLRPSDEGTYECVVLKYEKDAFKREHLAEVTLSVKAD										22108	16.3	611	13.9	2.84	1107	15563	356.9	25.5
